Test results published in publication PMC8140153, “Fluorescence Fluctuation Spectroscopy enables quantification of potassium channel subunit dynamics and stoichiometry” (Scientific Reports, 2021).

Tests used:
[1] = biological target: T1, KCNQ1-mCherry (human KCNQ1, C-terminally mCherry-tagged) (human, UniProt P51787 1-676); assay: Number and Brightness (N&B) analysis of TIRF image sequences; living CHO cells co-transfected with KCNE2-mEGFP and KCNQ1-mCherry; cells with fast micro-diffusion, E2f(Q1) (Dmicro > 0.02 µm^2 s^-1); 37 °C, 5% CO2; GAP-mEGFP as monomeric reference; conditions: partners not purified
T1 construct: KCNQ1 (Kv7.1) alpha subunit, human; cDNA in a CMV-based expression construct; also called Q1 in E2(Q1); source: CHO cells, co-transfected (Lipofectamine 3000), in living cells; not shown: mCherry, C-terminal, kept
T1 sequence (looked up): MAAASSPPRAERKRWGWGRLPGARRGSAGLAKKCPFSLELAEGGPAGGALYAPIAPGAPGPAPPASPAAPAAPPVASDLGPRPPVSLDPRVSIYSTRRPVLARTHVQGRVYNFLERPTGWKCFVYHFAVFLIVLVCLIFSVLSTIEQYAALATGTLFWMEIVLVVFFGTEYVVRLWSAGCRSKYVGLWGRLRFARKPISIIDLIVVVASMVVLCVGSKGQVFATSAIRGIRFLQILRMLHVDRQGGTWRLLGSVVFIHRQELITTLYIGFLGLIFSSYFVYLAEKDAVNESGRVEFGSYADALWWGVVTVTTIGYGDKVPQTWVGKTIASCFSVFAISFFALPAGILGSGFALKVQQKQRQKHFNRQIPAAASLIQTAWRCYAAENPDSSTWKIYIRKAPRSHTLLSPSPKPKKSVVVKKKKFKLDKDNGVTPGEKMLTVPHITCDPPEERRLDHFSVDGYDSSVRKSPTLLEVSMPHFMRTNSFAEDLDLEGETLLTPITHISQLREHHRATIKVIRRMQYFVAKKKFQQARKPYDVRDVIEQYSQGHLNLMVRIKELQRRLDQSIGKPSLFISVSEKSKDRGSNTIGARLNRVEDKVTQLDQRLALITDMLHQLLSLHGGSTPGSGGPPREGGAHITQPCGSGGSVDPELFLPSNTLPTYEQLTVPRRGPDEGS

[2] = biological target: the molecule itself; assay: Number and Brightness (N&B) analysis of TIRF image sequences; living CHO cells transfected with one mEGFP-tagged subunit alone; plasma membrane, 37 °C, 5% CO2; GAP-mEGFP as monomeric reference; oligomerization state corrected for protein maturation and misfolding

stoichiometry N [1]: 4 E2 subunits per KCNQ1-KCNE2 complex
B1: KCNE2-mEGFP (human KCNE2, C-terminally mEGFP-tagged) (natural protein, UniProt Q9Y6J6 1-123, looked up)
chain: MSTLSNFTQTLEDVFRRIFITYMDNWRQNTTAEQEALQAKVDAENFYYVILYLMVMIGMFSFIIVAILVSTVKSKRREHSNDPYHQYIVEDWQEKYKSQILNLEESKATIHENIGAAGFKMSP
notes: KCNE2, human, single transmembrane segment beta subunit; cDNA in a CMV-based expression construct; also called KCNE2 subunit; E2(Q1), E2f(Q1), E2s(Q1) when co-expressed with KCNQ1-mCherry; source: CHO cells, transfected (Lipofectamine 3000), in living cells; not shown: mEGFP, C-terminal, kept
stoichiometry N [2]: 2
